Where a chain is given by its changes, count along the chain named. Numbers in names are those of the source. Like-named read-outs stand apart in the source and are kept apart here.
T1: His-SUMO-Tau peptide Tau[273-318] (human, UniProt O02828 235-280 (Capra hircus entry), not fully specified)
T1 construct: SUMO domain fused at its C-terminus to the Tau peptide [273-318]; also called fused peptide; not shown: The N-terminal HisTag, the SUMO3 domain and any linker from vector pETNKI-HisSUMO3-LIC
T1 peptide: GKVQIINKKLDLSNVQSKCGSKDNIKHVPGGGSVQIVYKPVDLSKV

B1: VHH E4-1 (VHH)
VHH: EVQLQASGGGFVQPGGSLRLSCAASGATSTFDGMGWFRQAPGKEREFVSAISYEQGSYTYYADSVKGRFTISRDNSKNTVYLQMNSLRAEDTATYYCAPAYEGDLYAFDSYWGQGTQVTVSS
notes: Selected from the synthetic Nali-H1 phage library; also called lead VHH E4-1
B2: VHH Z70 (VHH)
VHH: B1 VHH with G10V, P14S, T79M, W112G
notes: E4-1 with G12V, P16S, T81M and W114G; It may be the form actually produced from pHEN2; also called single domain antibody Z70; optimized VHH Z70
B3: VHH Mut3 (VHH)
VHH: B1 VHH with G10V, P14S, R45K, T79M, W112G
notes: Variant of Z70; also called VH Mut3
B4: VHH Mut14 (VHH)
VHH: B1 VHH with G10V, P14S, T30I, E54G, T79M, W112G, G113E
notes: Variant of Z70; also called VH Mut14
B5: VHH Mut12 (VHH)
VHH: AEVQLQASGGVFVQSGGSLRLCCAASGATSTFDGMGWFRQAPGKEREFVSAISYEQGSYTYYADSVKGRFTISRDNSKNMVYLQMNSLRAEDTATYYCAPAYEGDLYAFDSYGEQGTQVTVSS
notes: Variant of Z70; also called VH Mut12
B6: VHH Mut9 (VHH)
VHH: B1 VHH with G10V, P14S, T79M, P99S, W112G, G113E
notes: Variant of Z70; also called VH Mut9
B7: VHH Mut1 (VHH)
VHH: B1 VHH with G10V, P14S, T79M, W112G, G113E
notes: Variant of Z70; also called VH Mut1
B8: VHH Mut5 (VHH)
VHH: B1 VHH with G10V, P14S, T79M, T94S, W112G
notes: Variant of Z70; also called VH Mut5
B9: VHH Mut20 (VHH)
VHH: B1 VHH with G10V, P14S, R45K, T79M, W112G, G113E
notes: Variant of Z70; also called VH Mut20
B10: VHH Mut15 (VHH)
VHH: B1 VHH with G10V, P14S, T79M, R88G, P99S, W112E
notes: Variant of Z70; also called VH Mut15

Experiments:
[1] = biological target: T2, recombinant full-length Tau protein, longest isoform (Tau 2N4R) (human, UniProt P10636-8 1-441, limits assumed, biotinylated with NHS-biotin for SPR; 15N-labelled for NMR); experiment: cell-based or functional assay
[2] = biological target: T2, recombinant full-length Tau protein, …; experiment: SPR (Biacore T200), single-cycle kinetics, biotinylated Tau on streptavidin chip, VHH injected 0.125-2 µM
Experimental: (§1) Affinity measurements were performed on a BIAcore T200 optical biosensor instrument (GE Healthcare). Recombinant Tau proteins were biotinylated with 5 molar excess of NHS-biotin conjugates (Thermofisher) during 4 hours at 4° C. Capture of biotinylated Tau was performed on a streptavidin SA sensorchip in HBS-EP+ buffer (GE Healthcare). One flow cell was used as a reference to evaluate nonspecific binding and provide background correction. Biotinylated-Tau was injected at a flow-rate of 30 μL/min, until the total amount of captured Tau reached 500 resonance units (RUs). VHHs were injected sequentially with increasing concentrations ranging between 0.125 and 2 μM in a single cycle, with regeneration (3 successive washes of 1M NaCl) between each VHH. On the other hand, VHH Z70 was immobilized on a CMS chip in HBS-EP+ buffer (GE Healthcare) and increasing concentrations, ranging between 0.125 and 2 μM of the SUMO-Tau peptide, were successively injected. Single-Cycle Kinetics (SCK) analysis⁵² was performed to determine association kon and dissociation Koff rate constants by curve fitting of the sensorgrams using the 1:1 Langmuir model of interaction of the BIAevaluation sotware 2.0 (GE Healthcare). Dissociation equilibrium constants (KD) was calculated as kon/Koff.

[3] = biological target: T2, recombinant full-length Tau protein, …; experiment: as above; remark: listed apart in the source
Experimental: as §1, with “VHH.” for “VHH. On the other hand, VHH Z70 was immobilized on a CMS chip in HBS-EP+ buffer (GE Healthcare) and increasing concentrations, ranging between 0.125 and 2 μM of the SUMO-Tau peptide, were successively injected.”, “(Kd)” for “(KD)”

[4] = biological target: T1, His-SUMO-Tau peptide Tau[273-318]; experiment: SPR, single-cycle kinetics, VHH Z70 immobilized on the chip, SUMO-Tau[273-318] injected 0.125-2 µM
Experimental: as §1, with “[…]. […]” for “kon/Koff.”

[5] = biological target: T2, recombinant full-length Tau protein, …; experiment: SPR, biotinylated Tau on streptavidin chip (the best mutant is Mut1 by Table 4)
Experimental: as §1, with “VHH.” for “VHH. On the other hand, VHH Z70 was immobilized on a CMS chip in HBS-EP+ buffer (GE Healthcare) and increasing concentrations, ranging between 0.125 and 2 μM of the SUMO-Tau peptide, were successively injected.”, “(Kd)” for “(KD)”
A mutant library of VHH Z70 has been screened for mutants displaying a stronger affinity in yeast two-hybrid system as described above. 8 mutants were selected and their affinity have been further characterized using SPR experiments.

T2 sequence (P10636 other isoform, or with tags, fused parts or gaps limits assumed): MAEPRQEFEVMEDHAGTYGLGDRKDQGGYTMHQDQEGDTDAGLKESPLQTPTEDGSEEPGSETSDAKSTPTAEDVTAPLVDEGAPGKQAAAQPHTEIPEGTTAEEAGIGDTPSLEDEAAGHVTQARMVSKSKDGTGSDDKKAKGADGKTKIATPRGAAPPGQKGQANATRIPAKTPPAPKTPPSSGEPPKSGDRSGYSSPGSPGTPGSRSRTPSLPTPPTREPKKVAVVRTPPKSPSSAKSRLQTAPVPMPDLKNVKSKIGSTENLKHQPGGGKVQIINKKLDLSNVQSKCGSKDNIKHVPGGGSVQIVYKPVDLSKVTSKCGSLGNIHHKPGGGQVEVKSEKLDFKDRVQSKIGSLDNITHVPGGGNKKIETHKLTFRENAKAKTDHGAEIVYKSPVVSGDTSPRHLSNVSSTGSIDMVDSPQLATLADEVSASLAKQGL

Row | Binder | Kd [3] | koff [3] | kon [3] | further results
1 | B1 |  |  |  | Thioflavin T fluorescence signal (% of positive control), 1:1 Tau:VHH E4-1 molar ratio [1]: 58.3%; maximal Thioflavin T fluorescence signal (% of positive control), molar ratio 1:0.25 Tau:VHH E4-1 [1]: 86.9%; time to gain 50% of maximal Thioflavin T signal, 1:1 Tau:VHH E4-1 molar ratio [1]: > 12.8 h; time to gain 50% of maximal Thioflavin T signal, molar ratio 1:0.25 Tau:VHH E4-1 (2.5 h for the positive control) [1]: ~3.8 h; Kd [2]: 345 nM; koff [2]: 0.0017 s⁻¹; kon [2]: 4980 M⁻¹ s⁻¹
2 | B2 | 147 nM | 0.00267 s⁻¹ | 18100 M⁻¹ s⁻¹ | maximal Thioflavin T fluorescence signal (% of positive control), 1:1 Tau:VHH Z70 molar ratio [1]: 4.1%; Kd [4]: 85 nM; Kd [2]: 147 nM; koff [2]: 0.0026 s⁻¹; kon [2]: 18100 M⁻¹ s⁻¹
3 | B3 | 80.5 nM | 0.0021 s⁻¹ | 26000 M⁻¹ s⁻¹ | 
4 | B4 | 74.2 nM | 0.0014 s⁻¹ | 18800 M⁻¹ s⁻¹ | 
5 | B5 | 61.1 nM | 0.00207 s⁻¹ | 33900 M⁻¹ s⁻¹ | 
6 | B6 | 51 nM | 0.00205 s⁻¹ | 40100 M⁻¹ s⁻¹ | 
7 | B7 | 22.6 nM | 0.00242 s⁻¹ | 107000 M⁻¹ s⁻¹ | fold improvement of KD against VHH Z70 [5]: > 6 fold
8 | B8 | 80.8 nM | 0.000883 s⁻¹ | 10900 M⁻¹ s⁻¹ | 
9 | B9 | 41.8 nM | 0.00089 s⁻¹ | 21200 M⁻¹ s⁻¹ | 
10 | B10 | 95.6 nM | 0.00203 s⁻¹ | 21300 M⁻¹ s⁻¹ | 

— patent US20220017611A1 (INSERM INSTITUTE NATIONAL DE LA SANT ET DE LA RECHERCHE M …, published 2022)
